± gives the uncertainty stated by the source.
B1: Advillin, residues 785 to 819; numbered along this chain, O75366 (parent)
chain: LSEQDFVSVFGITRGQFAALPGWKQLQMKKEKGLF

Variants of: B1
Test: abundance fitness (aPCA) (normalised: wild type 0, dead -1); higher = more abundant; growth selection in yeast, the domain comes from the species named
Details: Homo sapiens

Variant	abundance fitness
LSEQDFVSVFGITRGQFAQLPGWKQLQMKKEKGLF [A19Q]	-0.367 ± 0.14
LSEQDFVSVFGITRGQFASLPGWKQLQMKKEKGLF [A19S]	-0.068 ± 0.078
LSEQDFVSVFGITRGQFATLPGWKQLQMKKEKGLF [A19T]	-0.254 ± 0.069
LSEQDFVSVFGITRGQFAWLPGWKQLQMKKEKGLF [A19W]	-0.654 ± 0.096
LSEQDFVSVFGITRGQFAYLPGWKQLQMKKEKGLF [A19Y]	-0.409 ± 0.12
LSEQDFVSVFGITRGQFAAAPGWKQLQMKKEKGLF [L20A]	-0.593 ± 0.077
LSEQDFVSVFGITRGQFAACPGWKQLQMKKEKGLF [L20C]	-0.847 ± 0.11
LSEQDFVSVFGITRGQFAADPGWKQLQMKKEKGLF [L20D]	-0.113 ± 0.16
LSEQDFVSVFGITRGQFAAEPGWKQLQMKKEKGLF [L20E]	-0.404 ± 0.09
LSEQDFVSVFGITRGQFAAFPGWKQLQMKKEKGLF [L20F]	-0.832 ± 0.18
LSEQDFVSVFGITRGQFAAGPGWKQLQMKKEKGLF [L20G]	-0.408 ± 0.076
LSEQDFVSVFGITRGQFAAHPGWKQLQMKKEKGLF [L20H]	-0.487 ± 0.1
LSEQDFVSVFGITRGQFAAIPGWKQLQMKKEKGLF [L20I]	-0.902 ± 0.31
LSEQDFVSVFGITRGQFAAKPGWKQLQMKKEKGLF [L20K]	-0.639 ± 0.099
LSEQDFVSVFGITRGQFAAMPGWKQLQMKKEKGLF [L20M]	-0.211 ± 0.056
LSEQDFVSVFGITRGQFAANPGWKQLQMKKEKGLF [L20N]	-0.248 ± 0.21
LSEQDFVSVFGITRGQFAAPPGWKQLQMKKEKGLF [L20P]	-0.759 ± 0.12
LSEQDFVSVFGITRGQFAAQPGWKQLQMKKEKGLF [L20Q]	-0.368 ± 0.1
LSEQDFVSVFGITRGQFAARPGWKQLQMKKEKGLF [L20R]	-0.563 ± 0.059
LSEQDFVSVFGITRGQFAASPGWKQLQMKKEKGLF [L20S]	-0.328 ± 0.062
LSEQDFVSVFGITRGQFAATPGWKQLQMKKEKGLF [L20T]	-0.424 ± 0.079
LSEQDFVSVFGITRGQFAAVPGWKQLQMKKEKGLF [L20V]	-0.753 ± 0.11
LSEQDFVSVFGITRGQFAAWPGWKQLQMKKEKGLF [L20W]	-0.91 ± 0.16
LSEQDFVSVFGITRGQFAAYPGWKQLQMKKEKGLF [L20Y]	-0.106 ± 0.19

Variant	abundance fitness
LSEQDFVSVFGITRGQFAALAGWKQLQMKKEKGLF [P21A]	-0.414 ± 0.061
LSEQDFVSVFGITRGQFAALCGWKQLQMKKEKGLF [P21C]	-0.436 ± 0.11
LSEQDFVSVFGITRGQFAALDGWKQLQMKKEKGLF [P21D]	-0.54 ± 0.11
LSEQDFVSVFGITRGQFAALEGWKQLQMKKEKGLF [P21E]	-0.246 ± 0.057
LSEQDFVSVFGITRGQFAALFGWKQLQMKKEKGLF [P21F]	-0.696 ± 0.21
LSEQDFVSVFGITRGQFAALGGWKQLQMKKEKGLF [P21G]	-0.32 ± 0.067
LSEQDFVSVFGITRGQFAALHGWKQLQMKKEKGLF [P21H]	-0.534 ± 0.085
LSEQDFVSVFGITRGQFAALIGWKQLQMKKEKGLF [P21I]	-0.536 ± 0.15
LSEQDFVSVFGITRGQFAALKGWKQLQMKKEKGLF [P21K]	-0.413 ± 0.095
LSEQDFVSVFGITRGQFAALLGWKQLQMKKEKGLF [P21L]	-0.509 ± 0.064
LSEQDFVSVFGITRGQFAALMGWKQLQMKKEKGLF [P21M]	-0.64 ± 0.16
LSEQDFVSVFGITRGQFAALNGWKQLQMKKEKGLF [P21N]	-0.51 ± 0.23
LSEQDFVSVFGITRGQFAALQGWKQLQMKKEKGLF [P21Q]	-0.271 ± 0.17
LSEQDFVSVFGITRGQFAALRGWKQLQMKKEKGLF [P21R]	-0.614 ± 0.056
LSEQDFVSVFGITRGQFAALSGWKQLQMKKEKGLF [P21S]	-0.225 ± 0.079
LSEQDFVSVFGITRGQFAALWGWKQLQMKKEKGLF [P21W]	-0.617 ± 0.12
LSEQDFVSVFGITRGQFAALYGWKQLQMKKEKGLF [P21Y]	-0.668 ± 0.11
LSEQDFVSVFGITRGQFAALPAWKQLQMKKEKGLF [G22A]	-0.016 ± 0.083
LSEQDFVSVFGITRGQFAALPCWKQLQMKKEKGLF [G22C]	-0.44 ± 0.16
LSEQDFVSVFGITRGQFAALPDWKQLQMKKEKGLF [G22D]	-0.104 ± 0.14
LSEQDFVSVFGITRGQFAALPEWKQLQMKKEKGLF [G22E]	0.069 ± 0.079
LSEQDFVSVFGITRGQFAALPFWKQLQMKKEKGLF [G22F]	-0.138 ± 0.079
LSEQDFVSVFGITRGQFAALPHWKQLQMKKEKGLF [G22H]	0.082 ± 0.15
LSEQDFVSVFGITRGQFAALPIWKQLQMKKEKGLF [G22I]	-0.162 ± 0.1

Variant	abundance fitness
LSEQDFVSVFGITRGQFAALPKWKQLQMKKEKGLF [G22K]	0.064 ± 0.073
LSEQDFVSVFGITRGQFAALPLWKQLQMKKEKGLF [G22L]	-0.074 ± 0.091
LSEQDFVSVFGITRGQFAALPMWKQLQMKKEKGLF [G22M]	-0.084 ± 0.098
LSEQDFVSVFGITRGQFAALPNWKQLQMKKEKGLF [G22N]	-0.2 ± 0.11
LSEQDFVSVFGITRGQFAALPPWKQLQMKKEKGLF [G22P]	0.067 ± 0.065
LSEQDFVSVFGITRGQFAALPQWKQLQMKKEKGLF [G22Q]	0.01 ± 0.079
LSEQDFVSVFGITRGQFAALPRWKQLQMKKEKGLF [G22R]	-0.099 ± 0.062
LSEQDFVSVFGITRGQFAALPSWKQLQMKKEKGLF [G22S]	-0.108 ± 0.078
LSEQDFVSVFGITRGQFAALPTWKQLQMKKEKGLF [G22T]	0.005 ± 0.086
LSEQDFVSVFGITRGQFAALPVWKQLQMKKEKGLF [G22V]	-0.021 ± 0.082
LSEQDFVSVFGITRGQFAALPWWKQLQMKKEKGLF [G22W]	-0.405 ± 0.076
LSEQDFVSVFGITRGQFAALPYWKQLQMKKEKGLF [G22Y]	-0.093 ± 0.1
LSEQDFVSVFGITRGQFAALPGAKQLQMKKEKGLF [W23A]	-0.134 ± 0.062
LSEQDFVSVFGITRGQFAALPGCKQLQMKKEKGLF [W23C]	-0.235 ± 0.11
LSEQDFVSVFGITRGQFAALPGDKQLQMKKEKGLF [W23D]	0.005 ± 0.098
LSEQDFVSVFGITRGQFAALPGEKQLQMKKEKGLF [W23E]	0.081 ± 0.063
LSEQDFVSVFGITRGQFAALPGFKQLQMKKEKGLF [W23F]	-0.22 ± 0.19
LSEQDFVSVFGITRGQFAALPGGKQLQMKKEKGLF [W23G]	-0.238 ± 0.056
LSEQDFVSVFGITRGQFAALPGHKQLQMKKEKGLF [W23H]	-0.101 ± 0.086
LSEQDFVSVFGITRGQFAALPGIKQLQMKKEKGLF [W23I]	-0.284 ± 0.1
LSEQDFVSVFGITRGQFAALPGKKQLQMKKEKGLF [W23K]	-0.042 ± 0.077
LSEQDFVSVFGITRGQFAALPGLKQLQMKKEKGLF [W23L]	-0.233 ± 0.064

— the Human Domainome abundance scans (Beltran et al. 2025)
